# US20240368668A1, “SUBSTRATES AND BIOMARKERS OF ADAMTS7” (The Broad Institute, Inc., priority 2021, published 2024)
# Square brackets hold non-standard residues; d marks the D form. Ends that are not written are not given here.
# Target: T1, mouse ADAMTS7 (Mus musculus, UniProt Q68SA9)
# T1 construct: Full-length mouse Adamts7 1-1857 (Uniprot Q68SA9, WT or E373Q catalytic mutant); expressed in transfected cells; host or cells: Human Coronary Artery Smooth Muscle Cells (HCA-SMC, Lonza), adenovirus 50 MOI
# T1 sequence (Q68SA9 221-1657): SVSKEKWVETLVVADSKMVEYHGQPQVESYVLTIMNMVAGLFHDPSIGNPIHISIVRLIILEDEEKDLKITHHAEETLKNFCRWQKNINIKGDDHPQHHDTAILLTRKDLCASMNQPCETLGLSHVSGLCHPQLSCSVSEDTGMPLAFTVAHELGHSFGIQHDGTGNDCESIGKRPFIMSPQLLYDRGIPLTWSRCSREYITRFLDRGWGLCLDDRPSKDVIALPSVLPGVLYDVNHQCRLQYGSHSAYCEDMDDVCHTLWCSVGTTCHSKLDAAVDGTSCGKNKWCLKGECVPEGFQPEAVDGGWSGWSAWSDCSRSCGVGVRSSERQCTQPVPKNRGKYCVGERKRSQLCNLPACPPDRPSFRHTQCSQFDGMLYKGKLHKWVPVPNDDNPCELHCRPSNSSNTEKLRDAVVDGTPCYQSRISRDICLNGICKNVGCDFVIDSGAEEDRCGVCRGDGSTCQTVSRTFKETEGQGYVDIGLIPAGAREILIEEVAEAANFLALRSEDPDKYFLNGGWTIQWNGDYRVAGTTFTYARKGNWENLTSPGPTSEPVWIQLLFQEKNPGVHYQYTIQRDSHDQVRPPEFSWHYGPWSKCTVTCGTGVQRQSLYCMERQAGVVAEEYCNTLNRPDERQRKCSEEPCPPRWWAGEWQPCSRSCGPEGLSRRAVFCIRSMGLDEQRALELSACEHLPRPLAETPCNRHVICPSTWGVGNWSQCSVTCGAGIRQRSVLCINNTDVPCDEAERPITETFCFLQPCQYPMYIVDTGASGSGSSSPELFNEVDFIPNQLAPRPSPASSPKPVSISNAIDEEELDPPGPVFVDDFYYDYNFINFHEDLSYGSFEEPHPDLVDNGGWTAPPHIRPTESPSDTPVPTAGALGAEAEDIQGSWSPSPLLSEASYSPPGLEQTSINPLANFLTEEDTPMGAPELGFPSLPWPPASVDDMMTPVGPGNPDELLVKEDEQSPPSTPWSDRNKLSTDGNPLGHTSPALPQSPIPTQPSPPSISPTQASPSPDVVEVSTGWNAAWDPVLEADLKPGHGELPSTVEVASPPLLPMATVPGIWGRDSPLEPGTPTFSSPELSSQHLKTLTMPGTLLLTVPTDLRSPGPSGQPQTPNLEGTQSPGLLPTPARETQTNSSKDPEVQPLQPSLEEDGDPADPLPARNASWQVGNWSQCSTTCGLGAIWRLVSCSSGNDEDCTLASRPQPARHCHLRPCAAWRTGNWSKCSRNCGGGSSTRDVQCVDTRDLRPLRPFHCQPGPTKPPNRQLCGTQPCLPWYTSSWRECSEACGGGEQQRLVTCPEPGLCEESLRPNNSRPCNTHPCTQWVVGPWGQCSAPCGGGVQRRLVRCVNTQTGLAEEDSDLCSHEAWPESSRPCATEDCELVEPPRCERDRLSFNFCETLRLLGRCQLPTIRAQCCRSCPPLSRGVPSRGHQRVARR
# Assay: TMT10 TAILS N-terminomics, SMC2 experiment (process replicates, trypsin/AspN digest)
# Assay type: cell-based
# Conditions: SMC2_TAILS HC
# Source text: ADAMTS7 Expression, Cell Culture and Preparation of the Secreted Proteins—Full-length mouse Adamts7 1-1857 (Uniprot Q68SA9, WT or E373Q catalytic mutant) with a carboxyl terminal 3xFLAG tag was used to generate custom adenoviruses as previously described. Adeno-CMV-Luciferase (Ad-Luc) from Vector Biolabs was used as a negative control. Human Coronary Artery Smooth Muscle Cells (HCA-SMC) were obtained from Lonza and expanded in Lonza SmGM-2 media in 15 cm tissue culture plates. Twenty-four hours before media collection, near confluent plates were transduced with 50 MOI adenovirus and switched to Lonza Basal SM media with volumes of 20 ml per 15 cm plate. Expression of the Flag tagged ADAMTS7 was confirmed from the media using western blot and detected using the anti-Flag M2-HRP antibody (Sigma, A8592). Collected media was processed by adding protease inhibitors (1 mM EDTA and 1 mM PMSF) and clarified by 500 g×5 min spin at 4 C to pellet cell debris. Cell media supernatants were then passed through a 0.22 um filter and kept chilled. Processed media was then concentrated 50-100× using 3 kDa Centricon Plus-70 filter unit, spun at 3,500 g×60 min at 4 C. Approximately 10% of the processed, concentrated media was set aside for total secretome proteolytic analysis. The remaining 90% of the processed, concentrated media was buffer exchanged into 50 mM HEPES pH 8.0, 150 mM NaCl (2×50 ml) using the 3 kDa Centricon Plus-70 filter unit and concentrated to >2 mg/ml to serve as input for the TAILS experiment. Secretome and TAILS input samples were stored at −80° C.
# For the first experiment, referred to as SMC1, 120 ml of media from 6×15 cm dishes was pooled from each condition (Luc, WT, EQ) and processed to produce three separate inputs for the TAILS experiment. Luc, WT and EQ inputs from the SMC1 experiment were each divided into triplicate 400 ug samples to generate technical replicate TAILS data. For the second experiment, referred to as SMC2, media was processed separately in triplicate for each condition (Luc1, Luc2, Luc3, WT1, WT2, WT3, EQ1, EQ2, EQ3) using 60 ml of media from 3×15 cm dishes for each process replicate. Inputs from the SMC2 experiment used process replicates of 300 ug each to generate TAILS data. The third experiment used input from cultured Human umbilical vein endothelial cells (HUVEC) from Lifeline Cell Technology grown in VascuLife Media and transduced in Lifeline Basal EC (+bFGF2 10 ng/ml). The HUVEC experiment used the same strategy as the SMC2 experiment, with 40 ml of media from 2×15 cm dishes for each process replicate and used 200 ug each to generate TAILS data. Inputs for process replicate experiments were restricted to the lowest concentration from the 9 parallel samples for SMC2 or HUVEC.
# TMT10 isotopic labeling and negative selection of non-labeled peptides-Sample preparation was performed based on the TAILS protocol from the Overall lab with some modifications. From a single experiment, nine parallel protein samples in 50 mM HEPES pH 8.0, 150 mM NaCl were separately denatured with guanidinium chloride (Sigma, G4505) to reach a final concentration of 2.5M guanidinium chloride and 250 mM HEPES and incubated at 65° C. for 15 min. Reduction was achieved through addition of tris(2-carboxylethyl) phosphine (TCEP) at a final concentration of […] and incubated at 65° C. for 45 min. Alkylation reaction was performed with addition of iodoacetamide (IAA, Sigma, A3221) to a final concentration of 10 mM IAA for 15 min at room temperature in the dark. Following denaturation, reduction and alkylation steps, ten percent of each of the nine parallel protein samples was removed and combined to serve as a pooled reference. Isobaric tags were added to free amine groups using the TMT10plex Isobaric Mass Tagging Kit (ThermoFisher, 90113) with TMT channels randomly assigned to the nine samples and TMT 131 assigned to the pooled reference. […]
# [1] = log fold change of N-terminal peptide, Ad-mADAMTS7 WT over Luc
Substance,"logFC.mWT.over.Luc (log fold change, mWT over Luc)",logFC.mWT.over.Luc [1]
IGFBP3_32 (AGLGPVVR; listed as Homo sapiens),4.68,–
EFEMP1_124 (AVAGPEMQTGR; listed as Homo sapiens),2.81,–
EFEMP1_125 (VAGPEMQTGR; listed as Homo sapiens),1.43,–
LOX_58 (LSLGSQYQPQR; listed as Homo sapiens),1.68,–
LOXL1_219 (VASAGVIYPYQPR; listed as Homo sapiens),–,1.56
FN1_1656 (SSSPVTGYR; listed as Homo sapiens),1.20,–
HSPG2_275 (LLPGSVR; listed as Homo sapiens),1.74,–
FBLN2_259 (ALGPPAPVQAKAR; listed as Homo sapiens),1.61,–
FN1_36 (MVQPQSPVAVSQSKPGCYDNGKHYQINQQWER; listed as Homo sapiens),3.59,–
HSPG2_2331 (ANLAYPAGSTQPIR; listed as Homo sapiens),1.72,–
LTBP1_393 (LTATNFR; listed as Homo sapiens),–,6.60
FLNA_1285 (LTQTGGPHVKAR; listed as Homo sapiens),4.37,–
FN1_1143 (LTPGVEYVYTIQVLR; listed as Homo sapiens),2.31,–
HSPG2_2333 (LAYPAGSTQPIR; listed as Homo sapiens),1.19,–
FBLN2_260 (LGPPAPVQAKAR; listed as Homo sapiens),1.98,–
FBN1_53 (LKGPNVCGSR; listed as Homo sapiens),4.64,–
IGFBP7_101 (AAGGPGVSGVCVCKSR; listed as Homo sapiens),2.53,–
LOX_124 (WFQAGYSTSR; listed as Homo sapiens),3.35,–
IGFBP3_31 (SAGLGPVVR; listed as Homo sapiens),2.12,–
LOX_126 (QAGYSTSR; listed as Homo sapiens),2.77,–

# Now from value to substance:
"logFC.mWT.over.Luc (log fold change, mWT over Luc)",logFC.mWT.over.Luc [1],Substance
3.33,–,FBN1_29 (LEAGNVKETR; listed as Homo sapiens)
–,3.27,LOXL2_37 (FQQPAPEYHQPQAPANVAKIQLR; listed as Homo sapiens)
2.08,–,CCDC80_66 (LEEPNLQPLQR; listed as Homo sapiens)
1.91,–,GSN_413 (HIANVER; listed as Homo sapiens)
–,1.74,LOXL2_38 ([code q]QPAPEYHQPQAPANVAKIQLR; not fully specified; listed as Homo sapiens)
1.37,–,LOX_123 (HWFQAGYSTSR; listed as Homo sapiens)
2.60,–,FN1_40 (QSPVAVSQSKPGCYDNGKHYQINQQWER; listed as Homo sapiens)
3.21,–,AEBP1_37 (FLEGFLSELEPEPR; listed as Homo sapiens)
–,1.82,LTBP1_540 (HQQVIPHVYPVAAKTQLGR; listed as Homo sapiens)
